Residue numbers refer to the chain shown, from its start. Numbers in names are those of the source.
T1: TsdA (thiosulfate dehydrogenase) (Allochromatium vinosum, UniProt D3RVD4)
T1 construct: native signal peptide (removed on export), C-terminal strep(II) tag kept; E. coli Lemo56(DE3) with pEC86; two c-type hemes; 28,228 Da by ESI-MS; 234 residues modeled
T1 sequence (D3RVD4 28-270): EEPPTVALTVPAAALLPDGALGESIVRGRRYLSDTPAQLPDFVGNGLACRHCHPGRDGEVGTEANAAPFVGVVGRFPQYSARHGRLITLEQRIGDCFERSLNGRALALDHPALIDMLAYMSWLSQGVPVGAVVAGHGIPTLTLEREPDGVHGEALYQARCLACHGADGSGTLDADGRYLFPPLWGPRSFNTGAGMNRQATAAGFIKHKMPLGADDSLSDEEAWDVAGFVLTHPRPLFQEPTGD

B1: TsdA (thiosulfate dehydrogenase) (Allochromatium vinosum DSM 180) (protein)
chain: T1 sequence (D3RVD4 28-270)
notes: native signal peptide (removed on export), C-terminal strep(II) tag kept; E. coli Lemo56(DE3) with pEC86; two c-type hemes; 28,228 Da by ESI-MS; 234 residues modeled
B2: TsdA (thiosulfate dehydrogenase) (Allochromatium vinosum DSM 180; R119A) (protein)
chain: T1 sequence (D3RVD4 28-270) with R92A
notes: as for B1
B3: TsdA (thiosulfate dehydrogenase) (Allochromatium vinosum DSM 180; S127A) (protein)
chain: T1 sequence (D3RVD4 28-270) with S100A
notes: as for B1
B4: TsdA (thiosulfate dehydrogenase) (Allochromatium vinosum DSM 180; R109A) (protein)
chain: T1 sequence (D3RVD4 28-270) with R82A
notes: as for B1
B5: TsdA (thiosulfate dehydrogenase) (Allochromatium vinosum DSM 180; R224A) (protein)
chain: T1 sequence (D3RVD4 28-270) with R197A
notes: as for B1

Assays:
[1] = molecular target: T1, TsdA (thiosulfate dehydrogenase); experiment: ESI-MS of intact protein; type: biochemical; conditions: covalent; S-thiosulfonation of Cys123, +112 Da; pH 4.25 and pH 8.0; no electron donor
purified protein = substrate: O=S(O)(O)=S; experiment: purified protein; type: biochemical, Allochromatium vinosum; conditions: 1 mM potassium ferricyanide as electron acceptor, 100 mM ammonium acetate pH 4.25, 24 °C

Molecule | ESI-MS of intact protein [1] | Km (purified protein) [mM] | kcat (purified protein) [s⁻¹]
O=S(=O)(O)SSS(=O)(=O)O [tetrathionate] | Tetrathionate treatment under both conditions gave the 112-Da increase in mass |  | 
B1 |  | 2.2 ± 0.3 | 4280 ± 150
B2 |  | 47 ± 7 | 640 ± 40
B3 |  | 10.7 ± 6.2 | 3060 ± 920
B4 |  | 5.8 ± 0.8 | 3210 ± 310
B5 |  | 2.5 ± 0.8 | 3670 ± 460

Source: paper PMC4423706, “Mechanism of Thiosulfate Oxidation in the SoxA Family of Cysteine-ligated Cytochromes” (The Journal of Biological Chemistry, 2015)
